Starred links: 1 amine or outer side, 2 acyl side, 3 side chain; linkers in the order of their positions; H or OH if unused. Positions of bridges follow the written chain, without caps; N, C: chain ends. Non-standard residues stand in square brackets, D forms with d. Primed or numbered codes have the meaning given here. PyrS2″ = (S)-3-amino-1-((pent-4-en-1-yloxy)carbonyl)pyrrolidine-3-carboxylic acid (stapling residue), C=CCCCOC(=O)N1CC[C@@](N[*:1])(C(=O)[*:2])C1; B5(5) = 2,2-bis(4-pentenyl)glycine, 2-amino-2-(pent-4-en-1-yl)hept-6-enoic acid (stitching residue), C=CCCCC(CCCC=C)(N[*:1])C(=O)[*:2]; PyrS2 = (S)-3-amino-1-((pent-4-en-1-yloxy)carbonyl)pyrrolidine-3-carboxylic acid, C=CCCCOC(=O)N1CC[C@@](N[*:1])(C(=O)[*:2])C1; B5(12) = 2-amino-2-(pent-4-en-1-yl)hept-6-enoic acid (two olefin side chains), C=CCCCC(CCCC=C)(N[*:1])C(=O)[*:2]; B5(19) = 2-amino-2-(pent-4-en-1-yl)hept-6-enoic acid (bis(4-pentenyl)glycine), C=CCCCC(CCCC=C)(N[*:1])C(=O)[*:2]; Phe(3-COOH) = N[C@@H](Cc1cccc(C(=O)O)c1)C(=O)O; Phe(2-CF3) = N[C@@H](Cc1ccccc1C(F)(F)F)C(=O)O; Phe(2-Cl) = N[C@@H](Cc1ccccc1Cl)C(=O)O; Bta = N[C@@H](Cc1csc2ccccc12)C(=O)O; αAllylPro = C=CC[C@@]1(C(=O)O)CCCN1; tBuAla = CC(C)(C)C[C@H](N)C(=O)O; Gly(cBu) = N[C@H](C(=O)O)C1CCC1; 3Thi = N[C@@H](Cc1ccsc1)C(=O)O; S8 = C=CCCCCCC[C@](C)(N)C(=O)O; hSer = N[C@@H](CCO)C(=O)O; Nle = CCCC[C@H](N)C(=O)O; Ac5c = NC1(C(=O)O)CCCC1; Aib = CC(C)(N)C(=O)O
Molecular target: full-length beta-Catenin (Uniprot ID P35222) (Homo sapiens (Human)) (UniProt P35222)
Test: cell-based or functional assay
Target sequence in this assay (P35222 2-781 limits assumed): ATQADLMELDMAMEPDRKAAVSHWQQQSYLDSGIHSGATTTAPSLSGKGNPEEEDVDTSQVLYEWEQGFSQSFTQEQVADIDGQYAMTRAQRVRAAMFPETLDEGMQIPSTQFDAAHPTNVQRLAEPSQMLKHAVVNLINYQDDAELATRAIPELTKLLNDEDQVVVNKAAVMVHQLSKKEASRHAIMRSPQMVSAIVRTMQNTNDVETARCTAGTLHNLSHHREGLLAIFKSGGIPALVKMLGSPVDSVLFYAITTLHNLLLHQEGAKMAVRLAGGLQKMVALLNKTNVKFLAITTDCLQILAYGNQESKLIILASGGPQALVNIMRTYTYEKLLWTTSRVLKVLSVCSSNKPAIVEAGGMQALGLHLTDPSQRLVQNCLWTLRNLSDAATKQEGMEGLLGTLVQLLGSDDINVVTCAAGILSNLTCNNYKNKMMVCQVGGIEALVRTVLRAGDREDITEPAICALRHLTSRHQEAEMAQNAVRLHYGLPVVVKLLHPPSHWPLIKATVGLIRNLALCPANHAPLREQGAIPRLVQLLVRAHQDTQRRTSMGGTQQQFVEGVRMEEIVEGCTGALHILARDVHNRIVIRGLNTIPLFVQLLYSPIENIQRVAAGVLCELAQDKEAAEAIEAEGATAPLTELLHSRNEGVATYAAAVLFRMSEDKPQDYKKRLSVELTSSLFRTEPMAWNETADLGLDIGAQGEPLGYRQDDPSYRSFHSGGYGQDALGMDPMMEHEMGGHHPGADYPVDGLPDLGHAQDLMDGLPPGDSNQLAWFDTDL

Binder	DLD1 4% Abs IC50
Ac-[αAllylPro]D[tBuAla][B5(5)]D[Phe(3-COOH)]AAFL[PyrS2″][Phe(2-CF3)][Bta]QLL-NH2 (staple 1-4, 4-11) [I-2380]	1500 nM
Ac-[αAllylPro]D[tBuAla][B5(5)]D[Phe(3-COOH)]AAFL[PyrS2″][Phe(2-CF3)][Bta]QLF-NH2 (staple 1-4, 4-11) [I-2381]	1100 nM
Ac-[αAllylPro]D[tBuAla][B5(5)]D[Phe(3-COOH)]AAFL[PyrS2″][Phe(2-CF3)][Bta]QLT-NH2 (staple 1-4, 4-11) [I-2383]	800 nM
Ac-[αAllylPro]D[tBuAla][B5(5)]D[Phe(3-COOH)]AAFL[PyrS2″][Phe(2-CF3)][Bta]QLS-NH2 (staple 1-4, 4-11) [I-2384]	1100 nM
Ac-[αAllylPro]D[tBuAla][B5(5)]D[Phe(3-COOH)]AAFL[PyrS2″][Phe(2-CF3)][Bta]QL[Aib]-NH2 (staple 1-4, 4-11) [I-2386]	700 nM
Ac-[αAllylPro]D[tBuAla][B5(5)]D[Phe(3-COOH)]AAFL[PyrS2″][Phe(2-CF3)][Bta]QL[Ac5c]-NH2 (staple 1-4, 4-11) [I-2387]	1500 nM
Ac-[αAllylPro]D[tBuAla][B5(5)]D[Phe(3-COOH)]AAFL[PyrS2″][Phe(2-CF3)][Bta]QL[Gly(cBu)]-NH2 (staple 1-4, 4-11) [I-2388]	1200 nM
Ac-[αAllylPro]D[tBuAla][B5(5)]D[Phe(3-COOH)]AAFL[PyrS2][Phe(2-CF3)][Bta]QLN-NH2 (staple 1-4, 4-11) [I-2390]	1400 nM
Ac-[αAllylPro]D[tBuAla][B5(5)]D[Phe(3-COOH)]AAFL[PyrS2][Phe(2-CF3)][Bta]QL[Nle]-NH2 (staple 1-4, 4-11) [I-2391]	700 nM
Ac-[αAllylPro]D[tBuAla][B5(5)]D[Phe(3-COOH)]AAFL[PyrS2][Phe(2-CF3)][Bta]QLR-NH2 (staple 1-4, 4-11) [I-2393]	5600 nM

Molecular target: Bcat-Halo (UniProt P35222)
Test: NanoBRET Abs IC50, HEK293 cells; Bcat-Halo / TCF4-Luc engagement

Bcat-Halo, sequence (P35222 whole entry): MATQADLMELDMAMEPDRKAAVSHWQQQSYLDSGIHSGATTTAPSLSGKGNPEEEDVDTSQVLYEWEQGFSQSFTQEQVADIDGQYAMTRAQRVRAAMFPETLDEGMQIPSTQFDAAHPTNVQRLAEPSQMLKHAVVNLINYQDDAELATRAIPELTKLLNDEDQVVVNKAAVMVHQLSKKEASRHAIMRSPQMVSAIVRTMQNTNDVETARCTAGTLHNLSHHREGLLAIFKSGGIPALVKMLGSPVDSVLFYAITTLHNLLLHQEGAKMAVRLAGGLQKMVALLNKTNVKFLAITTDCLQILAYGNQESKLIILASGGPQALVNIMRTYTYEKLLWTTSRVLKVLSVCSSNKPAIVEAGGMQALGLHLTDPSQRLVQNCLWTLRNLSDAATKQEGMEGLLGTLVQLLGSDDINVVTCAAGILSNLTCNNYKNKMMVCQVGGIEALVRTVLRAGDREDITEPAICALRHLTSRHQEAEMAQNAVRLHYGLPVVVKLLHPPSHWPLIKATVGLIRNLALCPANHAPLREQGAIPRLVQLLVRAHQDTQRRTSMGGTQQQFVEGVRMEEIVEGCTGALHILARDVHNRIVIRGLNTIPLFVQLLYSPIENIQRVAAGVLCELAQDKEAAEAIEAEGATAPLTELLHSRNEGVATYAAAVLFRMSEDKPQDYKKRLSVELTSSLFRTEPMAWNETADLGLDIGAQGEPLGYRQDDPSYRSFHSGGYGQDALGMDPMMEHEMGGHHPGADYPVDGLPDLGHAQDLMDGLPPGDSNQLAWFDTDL

Binder	IC50
Ac-[αAllylPro]D[tBuAla][B5(5)]D[Phe(3-COOH)]AAFL[PyrS2″][Phe(2-CF3)][Bta]QLL-NH2 (staple 1-4, 4-11) [I-2380]	2700 nM
Ac-[αAllylPro]D[tBuAla][B5(5)]D[Phe(3-COOH)]AAFL[PyrS2″][Phe(2-CF3)][Bta]QLF-NH2 (staple 1-4, 4-11) [I-2381]	2100 nM
Ac-[αAllylPro]D[tBuAla][B5(5)]D[Phe(3-COOH)]AAFL[PyrS2″][Phe(2-CF3)][Bta]QLT-NH2 (staple 1-4, 4-11) [I-2383]	4200 nM
Ac-[αAllylPro]D[tBuAla][B5(5)]D[Phe(3-COOH)]AAFL[PyrS2″][Phe(2-CF3)][Bta]QLS-NH2 (staple 1-4, 4-11) [I-2384]	4600 nM
Ac-[αAllylPro]D[tBuAla][B5(5)]D[Phe(3-COOH)]AAFL[PyrS2″][Phe(2-CF3)][Bta]QL[Aib]-NH2 (staple 1-4, 4-11) [I-2386]	2800 nM
Ac-[αAllylPro]D[tBuAla][B5(5)]D[Phe(3-COOH)]AAFL[PyrS2″][Phe(2-CF3)][Bta]QL[Ac5c]-NH2 (staple 1-4, 4-11) [I-2387]	7100 nM
Ac-[αAllylPro]D[tBuAla][B5(5)]D[Phe(3-COOH)]AAFL[PyrS2″][Phe(2-CF3)][Bta]QL[Gly(cBu)]-NH2 (staple 1-4, 4-11) [I-2388]	5700 nM
Ac-[αAllylPro]D[tBuAla][B5(5)]D[Phe(3-COOH)]AAFL[PyrS2][Phe(2-CF3)][Bta]QLN-NH2 (staple 1-4, 4-11) [I-2390]	9100 nM
Ac-[αAllylPro]D[tBuAla][B5(5)]D[Phe(3-COOH)]AAFL[PyrS2][Phe(2-CF3)][Bta]QL[Nle]-NH2 (staple 1-4, 4-11) [I-2391]	8200 nM
Ac-[αAllylPro]D[tBuAla][B5(5)]D[Phe(3-COOH)]AAFL[PyrS2][Phe(2-CF3)][Bta]QLR-NH2 (staple 1-4, 4-11) [I-2393]	> 20000 nM
Ac-[αAllylPro]D[tBuAla][B5(5)]D[Phe(3-COOH)]AAFL[PyrS2][Phe(2-CF3)][Bta]QLY-NH2 (staple 1-4, 4-11) [I-2392]	8600 nM

Molecular target: full-length beta-Catenin (Uniprot ID P35222) (Homo sapiens (Human)) (UniProt P35222)
Test: FP competition; full-length beta-catenin, competitor 5FAM-TCF4(10-53)
Target sequence in this assay (P35222 whole entry, one chain of several): as the sequence (P35222 whole entry) above

Binder	EC50
Ac-[αAllylPro]D[tBuAla][B5(19)]DDAAF[hSer][S8][Phe(2-Cl)][Bta]Q-NH2 (staple 1-4, 4-11) [I-1395]	33 nM
Ac-[αAllylPro]D[tBuAla][B5(19)]DDAAF[hSer][S8][Phe(2-CF3)][Bta]Q-NH2 (staple 1-4, 4-11) [I-1397]	48 nM

Molecular target: Bcat-Halo (beta-catenin HaloTag construct expressed in HEK293 cells) (UniProt P35222)
Test: NanoBRET Abs IC50 in HEK293 cells; B-cat-Halo with competitor TCF4-Luc

Bcat-Halo (beta-catenin HaloTag construct expressed in HEK293 cells), sequence (P35222 whole entry): as above

Binder	IC50
Ac-[αAllylPro]D[tBuAla][B5(19)]DDAAF[hSer][S8][Phe(2-Cl)][Bta]Q-NH2 (staple 1-4, 4-11) [I-1395]	15400 nM
Ac-[αAllylPro]D[tBuAla][B5(19)]DDAAF[hSer][S8][Phe(2-CF3)][Bta]Q-NH2 (staple 1-4, 4-11) [I-1397]	16400 nM
Ac-[αAllylPro]DL[B5(12)]D[Phe(3-COOH)]AAFL[PyrS2″][3Thi][Bta]Q-NH2 (staple 1-4, 4-11) [I-1406]	5000 nM
Ac-[αAllylPro]DL[B5(12)]D[Phe(3-COOH)]AAF[Nle][PyrS2″][3Thi][Bta]Q-NH2 (staple 1-4, 4-11) [I-1407]	4200 nM

Molecular target: full-length beta-Catenin (Uniprot ID P35222) (Homo sapiens (Human)) (UniProt P35222)
Test: fluorescence polarization competition; full-length beta-catenin, competitor 5FAM-TCF4(10-53)
Target sequence in this assay (P35222 2-781 limits assumed): as the sequence (P35222 2-781 limits assumed) above

Binder	IC50
Ac-[αAllylPro]D[tBuAla][B5(5)]D[Phe(3-COOH)]AAFL[PyrS2″][Phe(2-CF3)][Bta]QLL-NH2 (staple 1-4, 4-11) [I-2380]	330 nM
Ac-[αAllylPro]D[tBuAla][B5(5)]D[Phe(3-COOH)]AAFL[PyrS2″][Phe(2-CF3)][Bta]QLF-NH2 (staple 1-4, 4-11) [I-2381]	1470 nM
Ac-[αAllylPro]D[tBuAla][B5(5)]D[Phe(3-COOH)]AAFL[PyrS2″][Phe(2-CF3)][Bta]QLT-NH2 (staple 1-4, 4-11) [I-2383]	77 nM
Ac-[αAllylPro]D[tBuAla][B5(5)]D[Phe(3-COOH)]AAFL[PyrS2″][Phe(2-CF3)][Bta]QLS-NH2 (staple 1-4, 4-11) [I-2384]	5 nM
Ac-[αAllylPro]D[tBuAla][B5(5)]D[Phe(3-COOH)]AAFL[PyrS2″][Phe(2-CF3)][Bta]QL[Aib]-NH2 (staple 1-4, 4-11) [I-2386]	75.5 nM
Ac-[αAllylPro]D[tBuAla][B5(5)]D[Phe(3-COOH)]AAFL[PyrS2″][Phe(2-CF3)][Bta]QL[Ac5c]-NH2 (staple 1-4, 4-11) [I-2387]	120 nM
Ac-[αAllylPro]D[tBuAla][B5(5)]D[Phe(3-COOH)]AAFL[PyrS2″][Phe(2-CF3)][Bta]QL[Gly(cBu)]-NH2 (staple 1-4, 4-11) [I-2388]	133 nM
Ac-[αAllylPro]D[tBuAla][B5(5)]D[Phe(3-COOH)]AAFL[PyrS2][Phe(2-CF3)][Bta]QLN-NH2 (staple 1-4, 4-11) [I-2390]	22 nM
Ac-[αAllylPro]D[tBuAla][B5(5)]D[Phe(3-COOH)]AAFL[PyrS2][Phe(2-CF3)][Bta]QL[Nle]-NH2 (staple 1-4, 4-11) [I-2391]	110 nM
Ac-[αAllylPro]D[tBuAla][B5(5)]D[Phe(3-COOH)]AAFL[PyrS2][Phe(2-CF3)][Bta]QLR-NH2 (staple 1-4, 4-11) [I-2393]	61 nM
Ac-[αAllylPro]D[tBuAla][B5(5)]D[Phe(3-COOH)]AAFL[PyrS2][Phe(2-CF3)][Bta]QLY-NH2 (staple 1-4, 4-11) [I-2392]	462 nM

Molecular target: full-length beta-Catenin (Uniprot ID P35222) (Homo sapiens (Human)) (UniProt P35222)
Test: fluorescence polarization competition; full-length beta-catenin, competitor 5FAM-TCF4 10-53 probe
Target sequence in this assay (P35222 2-781 limits assumed): as above

Binder	IC50
Ac-[αAllylPro]D[tBuAla][B5(19)]DDAAF[hSer][S8][Phe(2-Cl)][Bta]Q-NH2 (staple 1-4, 4-11) [I-1395]	33 nM
Ac-[αAllylPro]D[tBuAla][B5(19)]DDAAF[hSer][S8][Phe(2-CF3)][Bta]Q-NH2 (staple 1-4, 4-11) [I-1397]	48 nM
Ac-[αAllylPro]DL[B5(12)]D[Phe(3-COOH)]AAFL[PyrS2″][3Thi][Bta]Q-NH2 (staple 1-4, 4-11) [I-1406]	6 nM
Ac-[αAllylPro]DL[B5(12)]D[Phe(3-COOH)]AAF[Nle][PyrS2″][3Thi][Bta]Q-NH2 (staple 1-4, 4-11) [I-1407]	5 nM

Molecular target: beta-catenin (Homo sapiens (Human)) (UniProt P35222)
Test: fluorescence polarization competition; full-length beta-catenin with 5FAM-TCF4(10-53) probe as competitor

beta-catenin (Homo sapiens (Human)), sequence (P35222 whole entry): as the sequence (P35222 whole entry) above

Binder	EC50
Ac-[αAllylPro]DL[B5(12)]D[Phe(3-COOH)]AAFL[PyrS2″][3Thi][Bta]Q-NH2 (staple 1-4, 4-11) [I-1406]	6 nM
Ac-[αAllylPro]DL[B5(12)]D[Phe(3-COOH)]AAF[Nle][PyrS2″][3Thi][Bta]Q-NH2 (staple 1-4, 4-11) [I-1407]	5 nM

Reference: patent US20240116985A1, “STAPLED PEPTIDES AND METHODS THEREOF” (priority 2020, published 2024)
